Stoichiometry N data for 2 substances are collected here from paper PMC12091997.

The target of experiment [1] is His6-tagged human GBP1 C589S (CaaX box mutant) (human) (UniProt P32455). Nature of the experiment: SEC; Superdex 200 10/300 GL on AKTA FPLC; 100 ug protein; 20 mM Tris (7.5), 140 mM NaCl, 2 mM MgCl2 with 200 uM GDP-AlF4- (transition state analogue); monomer to dimer. For orientation: In gel filtration, larger molecules generally elute earlier.
Experiment [2] concerns the target tag-free recombinant human GBP1, farnesylated (human) (UniProt P32455). Nature of the experiment: cryo-EM structure; cryo-electron tomography (300 kV) with sub-tomogram averaging of tag-free GBP1 coat assembled on Stm ΔwaaG::pBAD-ftsZ OMVs/minicells in the presence of GTP; 12,858 particles; dimer mask and monomer mask.

In general, stoichiometry N refers to the number of molecules, sites or subunits per partner or assembly.

For “His6-tagged human GBP1 C589S (CaaX box mutant) (from UniProt P32455 1-592) (natural protein)”, the stoichiometry N in experiment [1] stood at 2.
For “tag-free recombinant human GBP1, farnesylated (from UniProt P32455 1-592) (natural protein)”, the stoichiometry N in experiment [2] is 2.
